According to IntAct's records for PubMed 19208808:

B1: ATP-dependent RNA helicase DDX19B (Homo sapiens), Q9UMR2-1 (parent)
chain: MATDSWALAVDEQEAAAESLSNLHLKEEKIKPDTNGAVVKTNANAEKTDEEEKEDRAAQSLLNKLIRSNLVDNTNQVEVLQRDPNSPLYSVKSFEELRLKPQLLQGVYAMGFNRPSKIQENALPLMLAEPPQNLIAQSQSGTGKTAAFVLAMLSQVEPANKYPQCLCLSPTYELALQTGKVIEQMGKFYPELKLAYAVRGNKLERGQKISEQIVIGTPGTVLDWCSKLKFIDPKKIKVFVLDEADVMIATQGHQDQSIRIQRMLPRNCQMLLFSATFEDSVWKFAQKVVPDPNVIKLKREEETLDTIKQYYVLCSSRDEKFQALCNLYGAITIAQAMIFCHTRKTASWLAAELSKEGHQVALLSGEMMVEQRAAVIERFREGKEKVLVTTNVCARGIDVEQVSVVINFDLPVDKDGNPDNETYLHRIGRTGRFGKRGLAVNMVDSKHSMNILNRIQEHFNKKIERLDTDDLDEIEKIAN

Variants of: B1
Settings: with NUP214, P35658-1
Sequence of NUP214, P35658-1 (P35658 whole entry): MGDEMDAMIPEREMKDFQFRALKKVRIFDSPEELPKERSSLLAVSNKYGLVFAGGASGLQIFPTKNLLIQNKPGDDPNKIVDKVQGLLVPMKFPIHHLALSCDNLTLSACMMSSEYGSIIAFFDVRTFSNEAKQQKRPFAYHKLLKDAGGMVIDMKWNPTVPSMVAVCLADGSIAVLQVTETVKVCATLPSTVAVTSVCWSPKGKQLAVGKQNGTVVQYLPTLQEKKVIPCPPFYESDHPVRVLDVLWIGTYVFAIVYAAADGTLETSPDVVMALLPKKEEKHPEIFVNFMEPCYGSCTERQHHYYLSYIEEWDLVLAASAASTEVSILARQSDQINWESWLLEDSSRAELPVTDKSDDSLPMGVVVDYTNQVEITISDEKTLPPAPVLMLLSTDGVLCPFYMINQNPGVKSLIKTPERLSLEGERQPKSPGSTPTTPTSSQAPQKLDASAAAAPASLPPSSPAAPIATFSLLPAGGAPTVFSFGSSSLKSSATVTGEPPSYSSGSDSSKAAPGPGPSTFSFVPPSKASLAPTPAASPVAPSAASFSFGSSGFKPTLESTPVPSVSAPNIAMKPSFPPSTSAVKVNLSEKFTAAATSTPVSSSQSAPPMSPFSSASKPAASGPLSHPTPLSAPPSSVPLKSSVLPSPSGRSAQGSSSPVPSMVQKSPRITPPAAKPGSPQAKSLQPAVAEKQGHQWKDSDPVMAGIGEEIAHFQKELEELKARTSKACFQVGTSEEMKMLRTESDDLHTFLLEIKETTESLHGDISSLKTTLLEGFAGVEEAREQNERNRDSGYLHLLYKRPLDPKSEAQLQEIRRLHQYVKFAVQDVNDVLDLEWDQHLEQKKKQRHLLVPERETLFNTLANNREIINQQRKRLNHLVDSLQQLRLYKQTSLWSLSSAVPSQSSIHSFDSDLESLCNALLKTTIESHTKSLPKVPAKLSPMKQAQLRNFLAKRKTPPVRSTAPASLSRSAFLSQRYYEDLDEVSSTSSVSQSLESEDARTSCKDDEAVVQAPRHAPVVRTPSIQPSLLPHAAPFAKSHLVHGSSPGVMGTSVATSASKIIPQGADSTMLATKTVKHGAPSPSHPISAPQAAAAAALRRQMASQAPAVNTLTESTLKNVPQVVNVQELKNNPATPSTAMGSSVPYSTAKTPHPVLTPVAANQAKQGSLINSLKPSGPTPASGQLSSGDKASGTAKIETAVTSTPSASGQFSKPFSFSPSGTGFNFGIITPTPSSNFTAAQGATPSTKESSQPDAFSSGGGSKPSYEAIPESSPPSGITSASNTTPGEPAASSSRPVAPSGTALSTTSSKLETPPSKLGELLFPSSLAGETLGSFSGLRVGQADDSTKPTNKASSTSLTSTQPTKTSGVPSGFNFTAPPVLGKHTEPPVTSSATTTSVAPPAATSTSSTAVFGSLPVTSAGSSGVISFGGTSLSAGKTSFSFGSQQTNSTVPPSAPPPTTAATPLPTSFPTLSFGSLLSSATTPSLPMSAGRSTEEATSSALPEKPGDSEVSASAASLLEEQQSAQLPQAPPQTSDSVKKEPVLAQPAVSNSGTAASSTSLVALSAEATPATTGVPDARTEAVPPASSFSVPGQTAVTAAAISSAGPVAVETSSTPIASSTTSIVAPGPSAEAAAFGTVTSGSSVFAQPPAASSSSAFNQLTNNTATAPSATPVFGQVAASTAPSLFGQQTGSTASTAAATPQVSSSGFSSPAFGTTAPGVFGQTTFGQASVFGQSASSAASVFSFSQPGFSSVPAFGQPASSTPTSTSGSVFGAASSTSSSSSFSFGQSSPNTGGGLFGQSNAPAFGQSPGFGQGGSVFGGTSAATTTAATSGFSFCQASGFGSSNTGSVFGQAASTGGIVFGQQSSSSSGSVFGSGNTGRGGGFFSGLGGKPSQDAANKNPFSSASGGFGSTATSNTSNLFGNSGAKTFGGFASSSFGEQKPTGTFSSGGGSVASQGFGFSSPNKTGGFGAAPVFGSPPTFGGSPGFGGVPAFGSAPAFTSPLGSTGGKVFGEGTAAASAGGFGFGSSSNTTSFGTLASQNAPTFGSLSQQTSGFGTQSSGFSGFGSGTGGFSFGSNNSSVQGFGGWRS

Row | effect of a mutation on the interaction | Variant
1 | decreasing interaction | R259Q
2 | disrupting interaction strength | R259A
3 | disrupting interaction strength | R259E
